{"source": "patent US7193044B1", "about": "“Compounds and methods for regulating apoptosis, and methods of making and screening for compounds that regulate apoptosis” (Immunogen, Inc., priority 2000, dated 2007)", "molecules": {"B1": {"name": "HA-BAD S112A/S134A/S136A: HA-tagged mutant of shorter murine BAD, serines corresponding to Ser112, Ser134 and Ser136 substituted with alanine (protein, UniProt Q61337 1-204, looked up, variant S112A S134A S136A)", "Bcl2-associated agonist of …": "MGTPKQPSLAPAHALGLRKSDPGIRSLGSDAGGRRWRPAAQSMFQIPEFEPSEQEDASATDRGLGPSLTEDQPGPYLAPGLLGSNIHQQGRAATNSHHGGAGAMETRSRHSAYPAGTEEDEGMEEELSPFRGRARAAPPNLWAAQRYGRELRRMSDEFEGSFKGLPRPKSAGTATQMRQSAGWTRIIQSWWDRNLGKGGSTPSQ", "modifications": "HA tag", "notes": "HA-tagged mutant of shorter murine BAD, serines corresponding to Ser112, Ser134 and Ser136 substituted with alanine"}, "B2": {"name": "BAD S136A: mutant of shorter murine BAD, serine corresponding to Ser136 substituted with alanine; HA- or GST-tagged (protein, UniProt Q61337 1-204, looked up, variant S136A)", "Bcl2-associated agonist of …": "B1 Bcl2-associated agonist of … with A112S, A134S", "modifications": "HA or GST tag", "notes": "mutant of shorter murine BAD, serine corresponding to Ser136 substituted with alanine; HA- or GST-tagged"}, "B3": {"name": "BAD S155D: BAD mutant, Ser155 replaced with aspartic acid to mimic the negatively charged phospho-Ser155 residue (protein, UniProt Q61337 1-204, looked up, variant S155D)", "Bcl2-associated agonist of …": "B1 Bcl2-associated agonist of … with A112S, A134S, A136S, S155D"}}, "key": {"[1]": {"tested_on": "BAD phosphorylation in COS-7 cells", "test": "BAD phosphorylation in COS-7 cells (western blot band-shift)", "assay_type": "cell-based", "conditions": "anti-HA western blot", "source_text": "Mouse FL5.12 cells were then transfected with the expression vector encoding the shorter murine BAD of SEQ ID NO:3 or one of the three BAD mutants. Total mRNA was isolated from the transfected FL5.12 cells, and reverse transcribed into cDNA. The cDNA was then subcloned into the expression vector pcDNA3 so that the amino acid sequence of the BAD or mutant BAD, encoded by the subcloned cDNA, was in-frame and operably linked to an N-terminal hemagglutinin (“HA”) epitope encoded by the expression vector. The expression vectors encoding the HA-tagged shorter murine BAD and mutant BAD were expressed in COS-7 cells. Whole cell lysates (“WCL”) were then prepared from the COS-7 cells expressing the polypeptides. The phosphorylation of the shorter murine BAD of SEQ ID NO:3 and mutant BAD were detected by a western blot of the WCL, probed with an anti-HA antibody (“anti-HA antibody”). […] Of note, each of the BAD mutants resolved as a doublet on a 16% SDS-PAGE, even though in the amino acid sequence of each of the BAD mutants one or both of the serines corresponding to Ser112 and Ser136 were mutated, i.e., substituted with alanine. […]"}, "HeLa cells [2]": {"tested_on": "HeLa cells", "test": "Beta-gal ELISA apoptosis assay in transfected HeLa cells", "assay_type": "cell-based, human", "conditions": "HeLa cells, 24 hours post-transfection", "procedure": "Because BAD Ser155 phosphorylation, like Ser136 phosphorylation, prevents BAD from binding to Bcl-XL (FIG. 1), it was possible that by analogy, Ser155 dephosphorylation promotes cell death. To test this idea, HeLa cells were co-transfected with BAD or various BAD serine mutants and a β-gal reporter plasmid. Twenty-four hours post-transfection, cell viability was analyzed by β-gal ELISA.\nTo test this idea, HeLa cells were again co-transfected with BAD or various BAD serine mutants and a β-gal reporter plasmid. Forskolin was then added to half of the cultures while the other half was left untreated. Beta-gal ELISAs were performed 24 hours post transfection. […] Thus, phosphorylation of Ser155 rescues cells from BAD-induced apoptosis, while substitution of Ser155 with a nonphosphorylatable residue results in increased cell death and the failure of cells to be protected from induced PKA activity.\nBeta-gal ELISA assays were performed using the β-gal ELISA system from Boehringer Mannheim, according to manufacture's instructions. Cells were transfected with BAD (or BAD mutant) and β-gal in a ratio of 5:1. The transfected cells were trypsinized and distributed into 96-well tissue culture plates. Twenty-four hours after transfection, cell extracts were obtained by lysing the cells in lysis buffer. Cell extracts (200 μl) were then added to anti-β-gal-coated microtiter plates (MTP). The MTPs were foil-covered and incubated for one hour at 37° C. Solutions were then decanted and the MTPs were washed, followed by the addition of 200 μl of anti-β-gal-DIG working solution, and incubation for an additional hour as described above. Solutions were again decanted, the MTPs washed and 200 μl of DIG-POD working solution were added. The MTPs were incubated for another hour at 37° C., the solution decanted, and the wells washed. 200 μl of substrate with enhancer were added to each well and incubated at room temperature until color development. The β-gal activity was measured by the absorbance of the sample at […]. Data were based on triplicate wells with standard deviations calculated."}, "[3]": {"tested_on": "BAD Ser155 phosphorylation in HeLa cells", "test": "BAD phosphorylation in HeLa cells (western blot band-shift / anti-phospho-Ser155 antibody)", "assay_type": "cell-based, human", "conditions": "HeLa cells", "procedure": "A mammalian expression vector encoding mutant HA-BAD S155A, derived from the shorter murine BAD of SEQ ID NO:3, was constructed. HA-BAD S155A has an amino acid sequence wherein the serine at a position corresponding to Ser155 is substituted with alanine. A western blot was performed on WCL prepared from cells expressing the shorter murine BAD (SEQ ID NO:3), HA-BAD S112A, HA-BAD S136A, or HA-BAD S155A, and probed with anti-HA antibody.\nA western blot analysis, probed with anti-HA antibody, was performed on lysates produced from the Forskolin treated and untreated (control) cells to determine whether Forskolin could induce the phosphorylation BAD or mutant BAD.\nHeLa cells transiently expressing HA-BAD, HA-BAD S155A, HA-BAD S112A/S136A, or HA-BAD S112A/S136A/S155A were treated with Forskolin or a buffer control.\nThe HA-BAD S112A/S136A double mutant was transiently expressed in HeLa cells, and transfected cell cultures were treated with each of the GPCR ligands, individually and as a group. A western blot analysis, probed with anti-HA antibody, was performed on lysates produced from the treated and untreated (negative control) cells. […] Forskolin (FK) and no treatment (−) were positive and negative controls, respectively (FIG. 6(a), […], respectively).\nNon-transfected HeLa cells were treated with Forskolin or L-epinephrine, followed by western blot analysis of cell lysates using anti-BAD antibodies.\nTransformants were treated with L-epinephrine, then lysed and subjected to anti-HA western blot analysis.\nTo further test whether phosphorylation of Ser155 is dependent on the PI 3-kinase/Akt pathway, HeLa cells were transfected with the mutant HA-BAD S155A and pretreated with Wortmannin, an inhibitor of PI 3-kinase. These cells were then stimulated with epidermal growth factor (EGF), lysed and analyzed by western blot analysis.\nFor immunoprecipitation of all HA-BAD species, 1 μg of the anti-HA antibody was added to the cell lysates, and incubated at 4° C. for one hour. Protein G agarose (Pierce) was then added (50 μl/fraction of 50% slurry) and followed by a one hour incubation at 4° C. Beads were washed with RIPA buffer, boiled in loading buffer (2% SDS, 10% glycerol, 5% β-ME, 60 mM Tris, pH 6.8, 0.002% Bromophenol Blue) and loaded onto polyacrylamide gels. After electrophoresis, proteins were transferred to nitrocellulose membranes, and blots blocked in western wash buffer (40 mM Tris, pH 8.0, 150 mM NaCl, 0.2% NP-40) with 5% BSA for one hour at room temperature. Blots were incubated with primary antibody diluted in western wash buffer with 3% BSA at room temperature for 1–2 hours, washed with western wash buffer and incubated with secondary HRP-coupled antibody diluted in western wash buffer with 1.5% BSA, and washed extensively. Polypeptides were detected with the ECL chemiluminescence according to the manufacturers instructions (Amersham)."}, "HeLa cells [4]": {"tested_on": "HeLa cells", "test": "Fluorescence-based beta-galactosidase assay of BAD-induced cell death in transfected HeLa cells", "parameters": "species or system human", "conditions": "compared to wild-type BAD", "procedure": "FIG. 12(B) is a graphic representation of the results of a β-galactosidase assay. HeLa cells were co-transfected with the β-galactosidase gene and either HA-BAD (“WT”), HA-BAD S155A (“S155A”), HA-BAD S112A/S136A (“S112A/S136A”) or HA-BAD S112A/S136A/S155A (“AAA”). Transfected cells were then cultured in serum-free medium (SFM) or SFM supplemented with EGF (SFM+EGF) for 12 hours. Cell lysates were prepared and BAD-induced cell death was measured by the loss of β-galactosidase activity in a fluorescence-based assay. Fluorescence was measured at 465 nm. Results shown are the average and standard deviation of triplicate transfections (this experiment was repeated two more times with similar results). Expression levels of HA-tagged BAD and BAD mutants in transfected cell lysates were detected by anti-HA western blot analysis: HA-BAD (“WT”), HA-BAD S155A (“A”), HA-BAD S112A/S136A (“AA”), and HA-BAD S112A/S136A/S155A (“AAA”).\nFIG. 12(C) is a graphic representation of the results of a β-galactosidase assay. HeLa cells were co-transfected with the β-galactosidase gene and either an empty vector (“CTL”), wild-type BAD (“WT”), the BAD S155A mutant (“S155A”) or the BAD S155D mutant (“S155D”). Cell lysates were prepared and BAD-induced cell death was measured by the loss of β-galactosidase activity in a fluorescence-based assay. Fluorescence was measured at 465 nm. Results shown are the average and standard deviation of triplicate transfections (this experiment was repeated two more times with similar results).\nHeLa cells were co-transfected with the β-galactosidase gene and either wild-type BAD, BAD S155A, BAD S112A/S136A or BAD S112A/S136A/S155A. […] Cell lysates were prepared and BAD-induced cell death was measured by the loss of β-galactosidase activity in a fluorescence-based assay. […]\nTo measure β-gal activity, HeLa cells were plated in 12-well plates at 5×10^4 cells/well one day prior to transfection. […] Beta-gal activity was measured in extracts using a fluorogenic substrate (MUG, BIO-RAD FluorAce™ β-gal Reporter Assay, #170–3150). […]"}}, "note": "Numbering of substitutions follows the chain as printed. Names may count otherwise."}
{"molecule": "B1", "values": [{"measurement": "phosphorylation of expressed BAD mutant (lambda phosphatase-sensitive higher molecular weight band)", "setting": "[1]", "result": "does not eliminate the phosphorylation of BAD"}]}
{"molecule": "B2", "values": [{"measurement": "effect of expressed BAD mutant on cellular survival / cell death", "setting": "HeLa cells [2]", "result": "next greatest effect"}, {"measurement": "band-shift (phosphorylation) of expressed BAD construct in response to L-epinephrine", "setting": "[3]", "result": "significant band-shift"}]}
{"molecule": "B3", "values": [{"measurement": "pro-apoptotic activity", "setting": "HeLa cells [4]", "result": "no pro-apoptotic activity"}]}
